Experimental data as given in a protein production outcome set (Wang et al. 2014).

Experiment: label from the status in PepcDB records

Row | Sequence | protein production
1 | MSTVAFHTLGCKVNHYETEAIWQLFKQGGYERTEYEKKADVYVINTCTVTNTGDKKSRQVIRRAVRQNPDAVICVTGCYAQTSPAEIMAIPGVDIVVGTQDREKMLGYIEEFRKERQPINAVRNIMKTRVYEELDVPYFTDRTRASLKIQEGCNNFCTFCIIPWARGLMRSRDGKEVIKQAQQLVDAGYKEIVLTGIHTGGYGEDIKDYNLAGLLRDMEAEVGGLKRLRISSIEASQISDEVIEVLDKSEVVVRHLHIPLQSGSNTVLKRMRRKYTMEFFQERLDRLKEALPGLAITSDVIVGFPGETEEEFMETYNFIKENRFSELHVFPYSKRTGTPAARMEDQVPEDVKNDRVHRLIELSNQLAKEYASQFEGEVLEIIPEEQFKEGDREGLYVGYTDNYLKIVFEGSEELIGKLVKVKITKAGYPYNEAQFVRVLEDDVKKESASALEHHHHHH | failed
2 | MSTVRSIYYRGSLEHCNYTCSYCPFGRKSVSADTTEDQEALDRFISRIGGWKYGSLRILIIPYGEAMIHRYYREGIMRLAAMPHVIGVSCQTNLSFSVSRFLDEAEAEQADVSKFRFWASYHPEMVGVGEFASKVEMLRAAGIGVCAGAVGDPSAKEQIRKLRQLLDPSVYLFVNAMQGLRKPLSEEDIRFFGEIDNLFDYDRRNAKACLDGCVGGRETLFIDRKGDMYACPRSGIRMGNFYDDSTSDFQPFCLRKVCDCYIAFSNLCDTPLRRMMGDGALWRIPERKKVEAVFFDVDGTLTDAQGRIPDRTVSVLEYMAKRLPLYLSTALPVSHAKKRLGNVFGLFSGGVFADGGLLCYGETIECVPIANPMTAGFPGCRVTRYTREGKVFKYAVLAPNTREAVRWLTELDEEAYQLYQEGRLLTVVDSKASKKNGLITLCARLGISLREVLVVGNTMHDWPMMSVAGYSCAVMDAEEKLRKLSGYVLNPDSIPVFFDILEHHHHHH | failed
3 | MSVCPTNFDEKVECPFVDRKEFTEAFEKAFNNIDQQNYSILVYYGVAGIGKTSLRKELPALLEKHNESDLHTRVIWTSIDFATEQYKQPYKFLEVLSSQLRQKYNVKFNSFDIALATYWKKINPHNPLVKENYSEGSIVHDILDVCDEFVPANLIPNVYNLTKNLPKHYQKWVLKREEDISGLQNLEPTEIYKRLPVYLAHDLADHLQNTSELAVIFIDTYEALWEKERDKGSFNSRDEWLRKLIEKIQKSCLWVICGKESLRWEEVDEDWKNYLDQRKIGKLPEKDALDLLKQCGITEEDIQNVLIESSEGVPYYLELSIDIYRKIKKKKQPTPENFAKVPEGIFCRFVKYLDREEKETLKVLSVPRYWNRELFKILVEKFNTGYPATSFSELHSFSFMDVDDKGKCSMHQLMRKSLKDYQDQDLKKEVHNFMLDFYSNQLKDIDIKEITPEHEIALTEAFYHAKEALEAEDLLKWFISVSDPFNRAAFWQLITPMYEEMLQILEAKHGPEHKDIVTTLNILDVLYYKMGEYKKALQFSERALAIGETILGVQHPDVATSLDNLAGLYESMGNYKQALQLSERALEIYEKVLGPQHRDVAITLDNLAGLYESMGEYEKALIFYQRTIEIKEKVLGPQHSNFATSLDNLAVLYRQMGEYEKALQLSQRALEIYEKVLGPQHPDIATTLNNIALLYDSMGDYQKTLPLYQRALEINEKVFGPQYLGIATTLNNLAGFYRRVGDYEKALSLSQRSLEIDEKVLGSQHPDVARTLNSLALIYENIGDYEKALAFYQRSLDIREKVLGPQHPDVGRTLNNLARLYEIMGDHEKALTLYQRTIEIKEKALGPQHPDVATILNNLAGLHYRIGEYKKALPLYQRALDIVEKKLGQNQPNSVVIKNNYNRLLSKMSENEKK | failed
4 | MSVEIKRVDKHHCLDLVGIFIELERYYFGDKAASEQDLANYLSHQVFSEHSGVKVIAAVEHDKVLGFATYTIMFPAPKLSGQMYMKDLFVSSSARGKGIGLQLMKHLATIAITHNCQRLDWTAESTNPTAGKFYKSIGASLIREKEYYRFEGNGLNKLAKSL | not failed
